Reference: US20260146103A1 (J DAVID GLADSTONE INSTITUTES A TESTAMENTARY TRUST …, published 2026)

T1: P2 peptide (YSMKETTMKIIPFNRLTIG)
T1 peptide: YSMKETTMKIIPFNRLTIG

T2: fibrin (UniProt P02671 36-629; P02675 45-491; P02679 27-437)
T2 construct: also called IgG-depleted fibrin; fibrin networks
T2 sequence (looked up) 1: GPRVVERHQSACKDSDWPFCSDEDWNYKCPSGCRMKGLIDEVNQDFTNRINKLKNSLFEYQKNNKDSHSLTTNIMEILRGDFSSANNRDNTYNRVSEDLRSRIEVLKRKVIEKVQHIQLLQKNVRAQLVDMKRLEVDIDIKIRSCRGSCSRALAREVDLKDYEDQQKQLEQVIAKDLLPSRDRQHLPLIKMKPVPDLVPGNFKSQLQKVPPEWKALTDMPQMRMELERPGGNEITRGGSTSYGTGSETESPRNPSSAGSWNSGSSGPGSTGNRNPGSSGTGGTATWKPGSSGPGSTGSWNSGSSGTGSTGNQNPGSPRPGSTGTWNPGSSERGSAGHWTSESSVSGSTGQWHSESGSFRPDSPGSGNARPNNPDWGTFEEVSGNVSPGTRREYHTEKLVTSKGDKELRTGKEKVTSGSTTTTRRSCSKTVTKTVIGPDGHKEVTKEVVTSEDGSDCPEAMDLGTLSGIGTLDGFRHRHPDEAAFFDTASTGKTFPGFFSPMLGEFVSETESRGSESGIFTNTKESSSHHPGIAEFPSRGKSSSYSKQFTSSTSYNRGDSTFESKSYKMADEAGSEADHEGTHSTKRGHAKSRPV
T2 sequence (looked up) 2: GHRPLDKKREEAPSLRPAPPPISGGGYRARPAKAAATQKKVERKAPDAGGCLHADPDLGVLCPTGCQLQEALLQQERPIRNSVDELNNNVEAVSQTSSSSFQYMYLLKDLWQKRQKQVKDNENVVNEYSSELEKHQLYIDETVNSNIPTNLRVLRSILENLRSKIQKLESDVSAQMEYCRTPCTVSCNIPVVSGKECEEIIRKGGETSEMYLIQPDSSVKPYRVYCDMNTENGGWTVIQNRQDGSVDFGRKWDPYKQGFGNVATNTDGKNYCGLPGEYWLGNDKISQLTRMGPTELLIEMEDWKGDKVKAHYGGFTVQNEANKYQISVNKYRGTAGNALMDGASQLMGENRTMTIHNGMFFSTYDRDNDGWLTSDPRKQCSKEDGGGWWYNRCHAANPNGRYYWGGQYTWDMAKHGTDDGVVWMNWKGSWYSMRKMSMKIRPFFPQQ
T2 sequence (looked up) 3: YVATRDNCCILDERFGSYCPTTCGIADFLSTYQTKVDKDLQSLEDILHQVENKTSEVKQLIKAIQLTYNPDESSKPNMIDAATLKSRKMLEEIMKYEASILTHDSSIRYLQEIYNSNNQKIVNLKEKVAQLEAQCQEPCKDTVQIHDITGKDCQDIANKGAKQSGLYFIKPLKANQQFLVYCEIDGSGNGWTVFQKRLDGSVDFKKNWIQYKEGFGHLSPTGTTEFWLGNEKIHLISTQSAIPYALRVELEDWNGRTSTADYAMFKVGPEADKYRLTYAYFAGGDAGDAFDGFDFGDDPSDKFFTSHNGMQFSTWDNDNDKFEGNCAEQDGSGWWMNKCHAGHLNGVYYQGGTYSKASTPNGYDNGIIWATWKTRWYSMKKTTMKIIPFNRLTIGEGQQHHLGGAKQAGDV

T3: fibrinogen (UniProt P02671 20-629; P02675 31-491; P02679 27-437, limits assumed)
T3 construct: also called IgG-depleted fibrinogen
T3 sequence (looked up) 1: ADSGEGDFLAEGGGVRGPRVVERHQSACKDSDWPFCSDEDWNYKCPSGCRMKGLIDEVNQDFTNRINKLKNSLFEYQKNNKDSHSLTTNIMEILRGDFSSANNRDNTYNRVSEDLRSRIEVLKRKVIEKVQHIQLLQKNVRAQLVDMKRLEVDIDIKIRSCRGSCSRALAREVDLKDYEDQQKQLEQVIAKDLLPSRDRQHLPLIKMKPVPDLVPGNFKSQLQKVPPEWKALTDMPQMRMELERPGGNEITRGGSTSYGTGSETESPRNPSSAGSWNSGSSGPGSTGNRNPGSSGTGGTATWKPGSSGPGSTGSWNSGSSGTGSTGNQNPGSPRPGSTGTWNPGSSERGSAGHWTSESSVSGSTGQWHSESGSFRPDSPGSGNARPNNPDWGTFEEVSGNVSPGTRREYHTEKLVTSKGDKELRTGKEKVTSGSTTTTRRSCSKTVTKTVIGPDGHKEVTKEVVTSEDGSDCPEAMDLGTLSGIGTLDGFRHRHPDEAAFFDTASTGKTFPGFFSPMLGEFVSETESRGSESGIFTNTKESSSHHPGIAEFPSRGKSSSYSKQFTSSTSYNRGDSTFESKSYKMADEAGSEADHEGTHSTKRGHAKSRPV
T3 sequence (looked up) 2: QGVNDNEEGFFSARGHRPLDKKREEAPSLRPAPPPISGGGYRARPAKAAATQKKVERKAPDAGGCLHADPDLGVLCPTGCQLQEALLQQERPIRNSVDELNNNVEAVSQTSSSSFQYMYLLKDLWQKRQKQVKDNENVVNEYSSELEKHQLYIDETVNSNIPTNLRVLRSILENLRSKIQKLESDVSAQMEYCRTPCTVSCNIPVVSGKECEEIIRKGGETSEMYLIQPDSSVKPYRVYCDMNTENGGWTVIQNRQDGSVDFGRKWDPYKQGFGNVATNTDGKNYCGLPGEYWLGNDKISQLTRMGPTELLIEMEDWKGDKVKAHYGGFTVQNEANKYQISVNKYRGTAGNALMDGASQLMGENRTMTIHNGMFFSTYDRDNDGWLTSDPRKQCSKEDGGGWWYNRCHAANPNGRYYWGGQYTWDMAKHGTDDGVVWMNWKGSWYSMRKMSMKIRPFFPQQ
T3 sequence (looked up) 3: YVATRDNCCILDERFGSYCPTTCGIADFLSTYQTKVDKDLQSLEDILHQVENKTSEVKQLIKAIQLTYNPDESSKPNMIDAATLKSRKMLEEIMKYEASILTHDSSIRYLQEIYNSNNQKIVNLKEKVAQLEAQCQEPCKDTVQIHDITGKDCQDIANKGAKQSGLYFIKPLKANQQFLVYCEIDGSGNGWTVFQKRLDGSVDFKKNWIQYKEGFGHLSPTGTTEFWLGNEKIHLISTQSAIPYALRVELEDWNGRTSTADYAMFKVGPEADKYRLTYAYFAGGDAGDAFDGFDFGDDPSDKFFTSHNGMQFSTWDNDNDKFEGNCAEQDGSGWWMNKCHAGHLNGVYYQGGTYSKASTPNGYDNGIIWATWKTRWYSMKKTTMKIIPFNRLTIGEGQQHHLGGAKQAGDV

B1: Antibody G (45-C1C3) (antibody, V domains shown)
VH: EVQLVESGGGAVQPGRSLRLSCAASGVSFSNIGMHWVRQAPGKGLEWVALISSDGRHTHYADSVKGRFTISRDNSENTLYLQINGLRADDTAVYYCAKGLDTRARYMGKFYTFDYWGQGTLVTVSS
VL: DIQLTQSPSSLSASVGDRVTITCRASQNIGVNLNWYQQRPGKGPKLLVSSTFSLQSGVPSRFSASGAGTNFTLTISSLQPEDYVTYYCQQSYSSPFTFGPGTKVDIK
notes: also called mAb G; Ab G
B2: murine Antibody G (mu-AbG) (antibody, mouse IgG2a, kappa, V domains shown)
VH: EVQLVESGGGAVQPGRSLRLSCAASGVSFSNIGMHWVRQAPGKGLEWVALISSDGRHTHYADSVKGRFTISRDNSENTLYLQINGLRADDTAVYYCAKGLDTRARYMGKFYTFDYWGQGTLVTVSS
VL: DIQLTQSPSSLSASVGDRVTITCRASQNIGVNLNWYQQRPGKGPKLLVSSTFSLQSGVPSRFSASGAGTNFTLTISSLQPEDYVTYYCQQSYSSPFTFGPGTKVDIKR
notes: Variable domains of Antibody G with mouse IgG2a heavy and mouse kappa light constant regions; also called murine mAb G

Legend:
[1] = target: T1, P2 peptide (YSMKETTMKIIPFNRLTIG); assay: solid phase ELISA, 30 µM P2 peptide coated
Protocol: Based on the fibrinogen peptide profiling (FIG. 8), 15mers were selected to carry out individual peptide binding validation using solid phase ELISA. High purity 15mers were synthesized (Genemed) and then each were diluted at 30 μM in 20 mM HEPES buffer, coated in separate wells and dried overnight. Antibody G was incubated on peptide coated wells for 2 hours at 37° C., at a concentration of 25 or 50 μg/mL.

[2] = target: FIBG 331-345 peptide (human) (UniProt P02679); assay: solid phase ELISA, 30 µM FIBG331-345 peptide coated
[3] = target: T2, fibrin; assay: solid phase ELISA, 25 µg/mL IgG-depleted fibrin coated, 12-point 3-fold dilution
Protocol: (§1) Solid phase ELISA was used to assess whether Antibody G binds to fibrinogen and fibrin separately. Antibody G was incubated for 2 hours at 37° C. on 25 μg/mL IgG-depleted fibrinogen or fibrin in 20 mM HEPES buffer, pH7.2, coated and dried overnight in high protein-binding ELISA plates.
Solid phase ELISA was used to assess murine Antibody G binding to fibrin. Antibody G was incubated for 2 hours at 37° C. on 25 μg/mL IgG-depleted fibrin in 20 mM HEPES buffer, pH7.2, coated and dried overnight in high protein-binding ELISA plates.

[4] = target: T3, fibrinogen; assay: solid phase ELISA, 25 µg/mL IgG-depleted fibrinogen coated, 12-point 3-fold dilution
Protocol: as §1

| Binder | Kd [1] [nM] | Kd [2] [nM] | Kd [3] [nM] | Kd [4] [nM] |
| --- | --- | --- | --- | --- |
| B1 | 11800 | 360 | 160 | 660 |
| B2 |  |  | 40 |  |
